Test results as given in PMC9717613 (Nature catalysis, 2022).

Biological target: the molecule itself
Test: crystal structure

B1: HsKYNase_66-Ct6XHis (HsKYNase_66 with a C-terminal 6X-Histidine Tag) (enzyme, human)
chain: MEPSSLELPADTVQRIAAELKCHPTDERVALHLDEEDKLRHFRECFYIPKIQDLPPVDLSLVNKDEDAIYFNGNSLGLQPKMVKTYLEEELDKWAKIAIYGWFEGDSPWIHYDESIVGLMKDIVGANEKEIVLMNTLTVNLHLLMLSFFKPTPKRYKILLEAKAFPSDHYAIESQLQLHGLNIEESMRIIKPREGEETLRIEDILEVIEKEGDSIAVILFSGIHYYTGQHFNIPAITKAGQAKGCYVGFDLAHAVGNVELYLHDWGVDFACWCGYKYLNSSPGGIAGAFIHEKHAHTIKPALVGWFGHELSTRFKMDNKLQLIPGVCGFRCSTPPILLVCILHASLEIFKQATMKALRKKSVLLTGYLEYLIKHNYGKDKAATKKPVVNIITPSHVEERGCQLTLTFNVPNKDVFQELEKRGVVCDKRNPNGIRVAPVPLYNSFHDVYKFTNLLTSILDSAETKN
modifications: PLP cofactor bound as internal aldimine
- stoichiometry N: 2
